Paper doi:10.1101/791277 (2019)
Where no end group is shown, it is not given here. [ ]: non-standard residue; d: D form. The star is where a group is joined. 5FAM = O=C1OC2(c3ccc(O)cc3Oc3cc(O)ccc32)c2ccc(C(=O)*)cc21; pY = N[C@@H](Cc1ccc(OP(=O)(O)O)cc1)C(=O)O

What was measured:
Assay in all cases: FP
p85α nSH2 (325-430) = p85α nSH2 (325-430) (human, UniProt P27986 325-430)
p85β nSH2 (312-425) = p85β nSH2 (312-425) (mouse, UniProt O08908 312-425)
p85α cSH2 (614-720) = p85α cSH2 (614-720) (human, UniProt P27986 614-720)
Sequence of p85α cSH2 (614-720) (P27986 614-720): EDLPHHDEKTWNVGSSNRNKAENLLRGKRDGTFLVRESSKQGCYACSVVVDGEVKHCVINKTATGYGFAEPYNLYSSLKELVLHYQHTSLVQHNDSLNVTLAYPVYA

p85β cSH2 (603-712) = biological target: T1, p85β cSH2 (603-712) (mouse, UniProt O08908 603-712)
T1 chain: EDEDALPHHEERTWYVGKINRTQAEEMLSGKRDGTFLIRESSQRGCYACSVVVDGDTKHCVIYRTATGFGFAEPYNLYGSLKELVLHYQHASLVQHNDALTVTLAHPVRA

p85α nSH2 R358M = p85α nSH2 R358M (human, UniProt P27986 325-430, R358M)
Sequence of p85α nSH2 R358M (P27986 325-430 R358M): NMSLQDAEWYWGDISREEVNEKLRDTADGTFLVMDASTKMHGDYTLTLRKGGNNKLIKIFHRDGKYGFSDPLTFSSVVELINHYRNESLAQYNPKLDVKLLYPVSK

Sequence of p85α nSH2 (325-430) (P27986 325-430): as the sequence (P27986 325-430 R358M) above, with M34R counted along it
Sequence of p85β nSH2 (312-425) (O08908 312-425): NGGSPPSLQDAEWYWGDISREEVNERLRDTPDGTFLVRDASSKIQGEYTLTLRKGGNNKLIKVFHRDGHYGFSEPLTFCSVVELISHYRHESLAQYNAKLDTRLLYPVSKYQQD

Binder | Kd (p85α nSH2 (325-430)) | Kd (p85β nSH2 (312-425)) | Kd (p85α cSH2 (614-720)) | Kd (p85β cSH2 (603-712)) | Kd (p85α nSH2 R358M)
5FAM-TEDQ[pY]SLVEDE [p85α pY607 peptide, [5-FAM]-TEDQ-[pY]-SLVEDE] | 2400 nM | 9000 nM | 84000 nM |  | 
5FAM-SD[pY]MNMTP [CD28 peptide, [5-FAM]-SD-[pY]-MNMTP] |  |  | 43 nM | 100 nM | 
5FAM-TEDQ[pY]SLMEDE [p85β pY607 peptide, [5-FAM]-TEDQ-[pY]-SLMEDE] | 82 nM | 52 nM | 656 nM |  | 2900 nM
